Legend:
[1] = target: T1, p55 TNF Receptor (Homo sapiens, UniProt P19438); experiment: Cleavage of cell surface p55 TNF receptor on THP-1 cells; type: cell-based; conditions: 45 minutes at 37° C.
T1 construct: endogenous in cells; host or cells: THP-1
T1 sequence (P19438 30-455): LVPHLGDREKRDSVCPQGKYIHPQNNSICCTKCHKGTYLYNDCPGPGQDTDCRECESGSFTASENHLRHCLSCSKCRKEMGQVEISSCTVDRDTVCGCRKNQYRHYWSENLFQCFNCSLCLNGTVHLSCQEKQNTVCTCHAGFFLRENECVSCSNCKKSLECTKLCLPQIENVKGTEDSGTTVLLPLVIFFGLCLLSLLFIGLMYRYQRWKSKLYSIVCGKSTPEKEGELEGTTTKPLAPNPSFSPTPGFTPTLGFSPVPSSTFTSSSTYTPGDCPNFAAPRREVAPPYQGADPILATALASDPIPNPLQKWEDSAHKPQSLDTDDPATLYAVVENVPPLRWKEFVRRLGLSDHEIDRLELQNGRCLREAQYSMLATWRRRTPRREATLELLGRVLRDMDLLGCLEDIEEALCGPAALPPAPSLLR
Method: This cell line expresses both the p55 TNF receptor and the p75 TNF receptor. After incubating for 45 minutes at 37° C., the cells were washed, immunostained for cell surface receptor, and counted by flow cytometry.

[2] = test system: collagen-induced arthritis; experiment: Collagen-induced arthritis, treatment of established disease; type: in vivo
Method: (§1) Collagen-induced arthritis is a standard model for evaluating potential therapeutic agents for rheumatoid arthritis (Courtenay et al., Nature 283:666, 1980; Williams et al., Proc Natl Acad Sci USA 89:9784, 1992; Gerlag et al., J Immunol 165:1652, 2000). Arthritis was induced in 7-9 week old female DBA/1 LacJ mice by immunization with collagen. On day 0, the mice were injected at the base of the tail with 100 μg bovine type II collagen in complete Freund's adjuvant. On day 7, mice were boosted with an intraperitoneal injection of 100 μg collagen. To enhance and synchronize synovitis, the mice were injected subcutaneously on day 14 with 100 μg of lipopolysaccharide (LPS). Joint swelling was monitored in a blinded fashion by measuring the diameter in all 4 paws and both ankles using a constant pressure gauge. Arthritis Index was also determined on the following scale, and summed for all extremities. 0≡normal; 1≡one digit swollen; 2≡more than one digit swollen; 3≡joint distortion; 4≡ankylosis. The arthritis experiments were conducted under contract by Calvert Preclinical Services, Inc., Olyphant Pa.
Mice were immunized with collagen on days 0, and 7, and then boosted with LPS on day 14. Treatment with MP8 was initiated on day 22 when arthritis was well established. At that time, animals with arthritis were randomized into three groups, and unaffected animals were excluded. The three affected groups were then treated for 18 consecutive days with saline control, or with MP8 at either of two different doses.

[3] = Stability of receptor cleaving activity upon storage (FRET assay); type: physicochemical; conditions: a month of storage at 4° C. or −70° C., purified form
Method: The stability of MP8 was determined by storing aliquots of MP8 at 4° C. or −70°. Aliquots were taken out periodically to determine enzyme cleaving activity in the fluorescence resonance energy transfer peptide cleavage assay.

[4] = test system: TNF receptor; experiment: TNF receptor release in vivo after subcutaneous injection; set-up: species or system Balb/c mice
Method: To determine if the enzyme cleaves TNF receptors in vivo, 100,000 FU of purified MP8 was injected subcutaneously as a 500 μL bolus into female Balb/c mice. Control mice were injected with saline. Serum was sampled periodically, and tested for cytokine levels using ELISA kits from R&D System.

[5] = test system: carrageenan-induced paw edema; experiment: Carrageenan-induced paw edema; type: in vivo, Sprague Dawley rats; conditions: given one hour before carrageenan; paw volume three hours later; MP8 subcutaneously, indomethacin by mouth
Method: Based on the standard model (Winter et al., Proc Soc Exp Biol Med 111:544, 1962; Hansra et al., Inflammation 24:141, 2000), the experiment was performed as follows. Male Sprague Dawley rats were randomized by weight into three treatment groups. The animals were administered MP8 or control solution subcutaneously, or indomethacin by mouth. One hour later, they were injected in the left hind paw with a sterile solution of 1% carrageenan suspension in water, in order to induce swelling. Three hours later, the volume of the injected paw was measured by water displacement in a water plethysmograph (mean±SEM; 10 animals per group).
Male Sprague Dawley rats were administered with test protein or indomethacin (anti-inflammatory control), and then challenged in a hind footpad with carrageenan, as in Example 12.

[6] = Clearance of MP8 protein from the circulation by dot-blot analysis; type: in vivo; conditions: mice
[7] = test system: TNF receptor; experiment: Cell surface cleavage assay, release of TNF receptor isoforms by enzyme immunoassay; type: cell-based; conditions: 25 μg protein with 2.5×10^6 cells; (treated—untreated)/untreated
Method: To determine cell surface cleavage activity, 25 μg of MP8-FL2 was combined with 2.5×10^6 cells. Release of both TNF receptor isoforms was determined by enzyme immunoassay as (treated—untreated)/untreated.

[8] = test system: collagen-induced arthritis; experiment: Collagen-induced arthritis, treatment from 3 days before collagen; type: in vivo, DBA/1 LacJ mice
Method: as §1
As is typical in this model, not all animals respond to the collagen challenge.

[9] = target: IL-6 Receptor (Homo sapiens, UniProt P08887); experiment: FRET peptide cleavage assay, IL-6 receptor peptide; type: biochemical; conditions: Zn++ 0.1 mM, Ca++ 2 mM, corrected for EDTA, 37° C. for 3 hours
Method: Cytokine-specific proteolytic activity can rapidly be quantified by Fluorescence Resonance Energy Transfer (FRET). Peptides having the amino acid sequence of the TNF Receptor or other protein substrates are labeled at opposite ends with a fluorescence emitter and a fluorescence quencher. The peptide is then incubated with a source of receptor cleaving enzyme, and fluorescence is measured. The quenching group normally absorbs fluorescence from the emitter. But enzymatic cleavage of the peptide decouples the quenching group, and fluorescence emission increases proportionally.
The peptides used as substrates in the cleavage assay were taken from the known sites of proteolytic cleavage of the whole protein. The peptides were labeled with the fluorescence emitter (Edans-●) at the C-terminal, and the quenching hapten (Dabcyl-▴) at the N-terminal.
The assay is conducted in the presence of the metal cations Zn^++ (0.1 mM) and Ca^++ (2 mM), and corrected for cleavage in the presence of EDTA (20 mM). Dependence on divalent cations confirms that the enzyme activity measured in this assay is a metalloprotease. The assay mixture also contains a cocktail of protease inhibitors and bovine albumin. Cleavage is measured as the net change in fluorescence emission after incubating the enzyme with the peptide at 37° C. for 3 hours. […]

B1: MP8: polypeptide having the sequence of SEQ. ID NO:41 (usually with a HIS tag); cytokine receptor releasing protein expressed in E. coli (protein, listed as Homo sapiens)
chain: WIQRIRHEGNSTVYEWRTGTEPSVVERPHLEELPEQVAEDAIDWGDFGVEAVSEGTDSGISAEAAGIDWGIFPESDSKDPGGDGIDWGDDAVALQITVLEAGTQAPEGVARGPDALTLLEYTETRNQFLDELMELEIFLAQRAVELSEEADVLSVSQFQLAPAILQGQTKEKMVTMVSVLEDLIGKLTSLQLQHLFMILASPRYVDRVTEFLQQKLKQSQLLALKKELMVQKQQEALEEQAALEPKLDLLLEKTKELQKLIEADISKRYSGRPVNLMGTSL
modifications: HIS tag
notes: ID NO:41 (usually with a HIS tag); cytokine receptor releasing protein expressed in E. coli
Question: With B1 as the molecule, how does the “cleavage of p55 TNF receptor on the surface of cells” value [1] read?
Answer: cleaves

Question: What about the toxicity ([2]; MP8 treated groups) of the same molecule?
Answer: No toxicity was detected

Question: And the “swelling in the affected joints” value ([2]; daily for 18 days from day 22, two doses, p<0.001 vs control)?
Answer: highly significant reduction in swelling

Question: What about the “severity of inflammatory synovitis by histopathology” value ([2]; higher dose, end of experiment) of the same molecule?
Answer: lower severity of inflammatory synovitis

Question: And the “level of antibodies to type II collagen in serum” value ([2]; low or high dose, ELISA, p<0.02)?
Answer: almost half the control

Question: And the “loss of peptide cleaving activity on storage” value [3]?
Answer: no detectable loss of activity

Question: What about the “persistence of the effect after administration” value ([4]; 100,000 FU subcutaneously) of the same molecule?
Answer: 48 h

Question: What about the “persistence of released receptors in the circulation” value ([4]; other experiments) of the same molecule?
Answer: at least 6 days

Question: And the “inhibition of edema formation” value [5]?
Answer: 62%

Question: What about the “first clearance half-time from the circulation” value [6] of the same molecule?
Answer: ~39 h

Question: And the “cleavage and release of TNF receptor from the cell surface” value [7]?
Answer: cause cleavage and release of TNF receptor, with preference for the R1 (p55) isoform

Question: What about the “effectiveness compared with Enbrel” value ([8]; 300,000 FU daily) of the same molecule?
Answer: at least as effective as a scaled dose of Enbrel®

Question: And the “animals affected by arthritis” value ([8]; 300,000 FU daily starting 3 days before first collagen injection, 8 out of 9 controls affected)?
Answer: none of the animals treated with MP8 were affected

Question: And the “joint swelling and arthritis index” value ([8]; 300,000 FU daily, prophylactic)?
Answer: prevented the animals from showing any measurable signs of the disease

Question: What about the “cleavage of IL-6 receptor peptide” value [9] of the same molecule?
Answer: high activity

From patent US7807387B2, “Biological agent that causes IL-6 receptor release” (Meyer Pharmaceuticals LLC, priority 2003, dated 2010)
